We go through two molecules from publication PMC1635325 (Nucleic Acids Research, 2006).

B2: FLAG-GidA (natural protein, E. coli, UniProt P0A6U3 1-629, looked up)
chain: MFYPDPFDVIIIGGGHAGTEAAMAAARMGQQTLLLTHNIDTLGQMSCNPAIGGIGKGHLVKEVDALGGLMAKAIDQAGIQFRILNASKGPAVRATRAQADRVLYRQAVRTALENQPNLMIFQQAVEDLIVENDRVVGAVTQMGLKFRAKAVVLTVGTFLDGKIHIGLDNYSGGRAGDPPSIPLSRRLRELPLRVGRLKTGTPPRIDARTIDFSVLAQQHGDNPMPVFSFMGNASQHPQQVPCYITHTNEKTHDVIRSNLDRSPMYAGVIEGVGPRYCPSIEDKVMRFADRNQHQIFLEPEGLTSNEIYPNGISTSLPFDVQMQIVRSMQGMENAKIVRPGYAIEYDFFDPRDLKPTLESKFIQGLFFAGQINGTTGYEEAAAQGLLAGLNAARLSADKEGWAPARSQAYLGVLVDDLCTLGTKEPYRMFTSRAEYRLMLREDNADLRLTEIGRELGLVDDERWARFNEKLENIERERQRLKSTWVTPSAEAAAEVNAHLTAPLSREASGEDLLRRPEMTYEKLTTLTPFAPALTDEQAAEQVEIQVKYEGYIARQQDEIEKQLRNENTLLPATLDYRQVSGLSNEVIAKLNDHKPASIGQASRISGVTPAAISILLVWLKKQGMLRRSA

The target in series [1] is B2. The series can be described thus: native gel or EMSA.
Series [2] concerns the molecule itself. The series can be described thus: SEC. On the technique in general: In gel filtration, larger molecules generally elute earlier.

B1: recombinant MnmE (rMnmE, 53 kDa) (natural protein, E. coli, UniProt P25522 1-454, looked up)
chain: MSDNDTIVAQATPPGRGGVGILRISGFKAREVAETVLGKLPKPRYADYLPFKDADGSVLDQGIALWFPGPNSFTGEDVLELQGHGGPVILDLLLKRILTIPGLRIARPGEFSERAFLNDKLDLAQAEAIADLIDASSEQAARSALNSLQGAFSARVNHLVEALTHLRIYVEAAIDFPDEEIDFLSDGKIEAQLNDVIADLDAVRAEARQGSLLREGMKVVIAGRPNAGKSSLLNALAGREAAIVTDIAGTTRDVLREHIHIDGMPLHIIDTAGLREASDEVERIGIERAWQEIEQADRVLFMVDGTTTDAVDPAEIWPEFIARLPAKLPITVVRNKADITGETLGMSEVNGHALIRLSARTGEGVDVLRNHLKQSMGFDTNMEGGFLARRRHLQALEQAAEHLQQGKAQLLGAWAGELLAEELRLAQQNLSEITGEFTSDDLLGRIFSSFCIGK
With B1, in series [1], the “stoichiometry N” value was 1 MnmE per GidA (α2β2, 2:2).

Take B2: in series [2], the “stoichiometry N” value was determined as 2.

As usually defined, the stoichiometry N is the number of molecules, sites or subunits per partner or assembly.
